Measured values taken from publication PMC3903306.

Tests used:
[1] = biological target: IpaB^1.226 (Shigella flexneri); assay: cross-linking
IpgC (Shigella flexneri) = IpgC (Shigella flexneri) (UniProt P0A2U4); assay: ITC
[2] = biological target: IpaB^28.226 (Shigella flexneri); assay: cross-linking
[3] = biological target: FM-IpaB^C1.226 (Shigella flexneri); assay: fluorescence polarisation
[4] = biological target: FM-IpaB^C28.226 (Shigella flexneri); assay: fluorescence polarisation
[5] = biological target: FM-IpaB^N1.226 (Shigella flexneri); assay: fluorescence polarisation
[6] = biological target: FM-IpaB^N28.226 (Shigella flexneri); assay: fluorescence polarisation

Substance | stoichiometry N [1] | Kd (IpgC (Shigella flexneri)) | dH (IpgC (Shigella flexneri)) | stoichiometry N (IpgC (Shigella flexneri)) | stoichiometry N [2] | Kd [3] | Kd [4] | Kd [5] | Kd [6]
IpaB^1.226 (domain or fragment) | 2 | 0.208 µM | 8.68 kcal/mol | 1.03 |  |  |  |  | 
IpaB^28.226 (domain or fragment) |  | 2.96 µM | 3.55 kcal/mol | 0.88 | 2 |  |  |  | 
IpgC (from UniProt P0A2U4 1-155) (natural protein) |  |  |  |  |  | 0.0595 µM | 0.501 µM | 0.199 µM | 0.411 µM
